Laboratory results taken from US8460669B2, “Compositions and methods for identifying response targets and treating flavivirus infection responses” (Academia Sinica, priority 2005, dated 2013).
Entries after “also recorded” stand apart in the source; their conditions may differ.

Columns and labels:
[1] = Enzyme linked immunoassay of receptor.Fc fusions on immobilized GLPS-F3; format: binding, Ganoderma lucidum; settings: GLPS-F3 100 ng/well; receptor.Fc 1 μg/ml
Experimental: The interactions of polysaccharides with receptor.Fc fusion proteins was further investigated by performing an enzyme-linked immunoassay, which was based on immobilizing GLPS-F3 through both hydrophilic and hydrophobic forces onto microtiter plates (polysytrene). In this format, the number of different receptor.Fc fusions for profiling was increased in comparison to Example 7. To optimize the quantity of GLPS-F3 for immobilization, various amounts (3-1000 ng/well, diluted in 100 mM Tris buffer, pH9.5) of biotinylated-GLPS-F3 (Biotin-GLPS-F3) were coated onto MaxiSorp StarWell microtiter plates (50 μL/well; Nunc). The plates were incubated overnight at 4° C., and then the wells were washed twice with TBST, followed by blocking with 200 μL blocking buffer (2% BSA/TBST) for 1 hour at room temperature. Peroxidase-conjugated avidin (1:5000 dilution, Vector Laboratories) and TMB (tetramethylbenzidine) substrate was then used for detection of immobilized biotinylated GLPS-F3.
The interaction between GLPS-F3 and receptor.Fc was then tested. […] Wells were incubated with 100 μL TMB substrate for 15 min after TBST washing and read at 450 nm in a Fusion plate reader (Perkin Elmer). […]

Dengue virus [2] = experiment: ELISA of receptor.Fc interaction with Dengue virus; format: binding; settings: for binding to DV pretreated with heat or dithiothreitol: 95° C. 5 min or DTT 0.1 M; for binding to DV pretreated with PNGaseF: PNGaseF 500 U; for interaction of receptor.Fc with Dengue virus (ELISA): receptor.Fc 1 μg, DV 5×10^6
Experimental: One μg of each receptor.Fc fusion protein was coated onto microtiter plates overnight at 4° C. DV (5×10^6 particles) of strain 16681 (a DEN2 strain) in binding buffer (1% BSA, 2 mM CaCl2, 2 mM MgCl2, 50 mM Tris-HCl pH 7.5, 150 mM NaCl) was then added to the plates and the plates were incubated for 2 hours. After washing non-bound virus, a biotinylated anti-DEN2 envelope protein antibody (Wu et al., J Virol, 2002. 76(8): p. 3596-604) was applied to bind to the virus for 1 hour. Diluted horseradish peroxidase-conjugated streptavidin was then added to the plates, followed by a 1 hour incubation. TMB substrate was then added and the plates were read using an ELISA reader at OD450 nm.
The microtiter plate assay was repeated in the presence of EDTA (10 mM) to chelate Ca^++ cations.
The microtiter plate assay was also repeated for DVLR1/CLEC5A.Fc fusion protein with DV particles (5×10^6) that had been 1) preincubated with 500 U of the glycosidase PNGaseF (New England Biolabs, Inc.) overnight at 37° C.; or 2) treated with dithiothreitol (DTTI) (0.1M); or 3) incubated at 95° C. for 5 minutes; or 4) UV irradiated for 5 minutes. The results are shown in FIG. 8D (asterisks indicate where the binding affinity of DVLR1/CLEC5A.Fc fusion protein is altered by modification of the virus relative to non-treated virus; ** p<0.01, *** p<0.001, Student's t test). […]

JEV = experiment: ELISA of DVLR1/CLEC5A.Fc interaction with JEV; format: binding, Japanese encephamyelitis virus; settings: 1 μg; JEV 5×10^6 PFU
Experimental: Like with DV, JEV follows a similar virus infection response pattern, which is believed to be the same or similar in all flaviviruses. […] (1 μg), with JEV and DV (5×10^6 PFU), respectively, were determined by ELISA. DV interacts with human DVLR1/CLEC5A (187 amino acid in length) SEQ ID NO: 72, but not the alternatively spliced form sDVLR1/CLEC5A (aa 43-65 is deleted). SEQ ID NO: 73. […] DAP12 in DV-infected macrophages were precipitated by anti-DAP12 mAb, blotted to nitrocellulose paper after fractionation on SDS-PAGE, followed by incubation with antibodies against phosphotyrosine and DAP12, respectively. JEV-induced DAP12 phosphorylation (m.o.i.=5) is inhibited by pLL3.7/DVLR1/CLEC5A. […] JEV-induced TNF-α secretion is inhibited by […] mAb (right). Data are expressed as the mean±s.d. of three independent experiments.

Dengue virus [3] = experiment: Immunoprecipitation of Dengue virus with receptor.Fc; format: binding; settings: receptor.Fc 5 μg; DV 5×10^6; listed as DVLR1/CLEC5A.Fc
Experimental: The results are depicted in FIG. 8A (** indicates p<0.01, *** indicates p<0.001 (Student's t test)). […] Specifically, 5×10^6 Dengue virus particles were incubated with 5 μg of each protein, and then Protein A beads were added. The resulting immunocomplexes were washed, separated by SDS-PAGE, and transferred onto nitrocellulose membrane. The membrane was then probed with biotinylated anti-DEN2 envelope protein antibody and developed with horseradish peroxidase-conjugated streptavidin.
In FIG. 16b, complexes of DV (5×10^6 PFU) with receptor.Fc (5 μg) were immunoprecipitated and detected on westerns with mAb to DV envelope (E) protein. […] FIGS. 16d and 16e show sugar competition assays wherein both DC-SIGN (CLEC4L) and DVLR1/CLEC5A increase DV binding to human 293T cells (FIG. 16d), while addition of sugars inhibits biotinylated DV binding to DC-SIGN- (left panel) or DLVR1/CLEC5A- (right panel) transfected 293T cells in a dose-dependent manner as determined by flow cytometry (FIG. 16e). According to FIG. 16e, MFI represents mean fluorescence intensity. Units (U) for monosaccharide (mannose and fucose) and polysaccharide (mannan) are mM and mg/ml, respectively. […] Data are expressed as the mean±s.d. of three independent experiments. Two-tailed, Student's t-tests were performed. […]

B1: Fc.MDL-1: extracellular domain of human DVLR1/CLEC5A (MDL-1) fused to the Fc portion of human IgG1 (protein)
chain: MNWHMIISGLIVVVLKVVGMTLFLLYFPQIFNKSNDGFTTTRSYGTVSQIFGSSSPSPNGFITTRSYGTVCPKDWEFYQARCFFLSTSESSWNESRDFCKGKGSTLAIVNTPEKLFLQDITDAEKYFIGLIYHREEKRWRWINNSVFNGNVTNQNQNFNCATIGLTKTFDAASCDISYRRICEKNAK
- binding ability to GLPS-F3 [1]: minimal binding ability
- binding to DV pretreated with heat or dithiothreitol (Dengue virus [2]): abolish
- binding to DV pretreated with heat or dithiothreitol (Dengue virus [2]; listed as DVLR1/CLEC5A.Fc): almost completely inhibited
- Ca^++ dependence of binding to Dengue virus (Dengue virus [2]; EDTA 10 mM): Ca^++ independent; also recorded: no effect
- binding to DV pretreated with PNGaseF (Dengue virus [2]): substantially reduced
- binding to DV pretreated with PNGaseF (Dengue virus [2]; listed as DVLR1/CLEC5A.Fc): inhibited DVLR1/CLEC5A.Fc interaction significantly
- interaction of receptor.Fc with Dengue virus (ELISA) (Dengue virus [2]): binds; also recorded: interacts
- interaction of receptor.Fc with Dengue virus (ELISA) (Dengue virus [2]; listed as DVLR1/CLEC5A.Fc): able to capture DV2
- interaction with JEV (ELISA) (JEV): not
- immunoprecipitation of Dengue virus (E protein detected) (Dengue virus [3]): able to immunoprecipitate DV; also recorded: detected
